Test results taken from patent publication US7601333B2, “Use of a tetrapeptide AcSDKP (SEQ ID No. 1) analog resistant to the angiotensin I converting enzyme for measuring glomerular filtration rate in a human or an animal and kit containing same” (Assistance Publique-Hopitaux de Paris, priority 2003, dated 2009).
No end group written: not given here.

T1: rat lung ACE (angiotensin I converting enzyme in ground rat lung material) (rat, UniProt P47820 36-1313, limits assumed)
T1 sequence (looked up): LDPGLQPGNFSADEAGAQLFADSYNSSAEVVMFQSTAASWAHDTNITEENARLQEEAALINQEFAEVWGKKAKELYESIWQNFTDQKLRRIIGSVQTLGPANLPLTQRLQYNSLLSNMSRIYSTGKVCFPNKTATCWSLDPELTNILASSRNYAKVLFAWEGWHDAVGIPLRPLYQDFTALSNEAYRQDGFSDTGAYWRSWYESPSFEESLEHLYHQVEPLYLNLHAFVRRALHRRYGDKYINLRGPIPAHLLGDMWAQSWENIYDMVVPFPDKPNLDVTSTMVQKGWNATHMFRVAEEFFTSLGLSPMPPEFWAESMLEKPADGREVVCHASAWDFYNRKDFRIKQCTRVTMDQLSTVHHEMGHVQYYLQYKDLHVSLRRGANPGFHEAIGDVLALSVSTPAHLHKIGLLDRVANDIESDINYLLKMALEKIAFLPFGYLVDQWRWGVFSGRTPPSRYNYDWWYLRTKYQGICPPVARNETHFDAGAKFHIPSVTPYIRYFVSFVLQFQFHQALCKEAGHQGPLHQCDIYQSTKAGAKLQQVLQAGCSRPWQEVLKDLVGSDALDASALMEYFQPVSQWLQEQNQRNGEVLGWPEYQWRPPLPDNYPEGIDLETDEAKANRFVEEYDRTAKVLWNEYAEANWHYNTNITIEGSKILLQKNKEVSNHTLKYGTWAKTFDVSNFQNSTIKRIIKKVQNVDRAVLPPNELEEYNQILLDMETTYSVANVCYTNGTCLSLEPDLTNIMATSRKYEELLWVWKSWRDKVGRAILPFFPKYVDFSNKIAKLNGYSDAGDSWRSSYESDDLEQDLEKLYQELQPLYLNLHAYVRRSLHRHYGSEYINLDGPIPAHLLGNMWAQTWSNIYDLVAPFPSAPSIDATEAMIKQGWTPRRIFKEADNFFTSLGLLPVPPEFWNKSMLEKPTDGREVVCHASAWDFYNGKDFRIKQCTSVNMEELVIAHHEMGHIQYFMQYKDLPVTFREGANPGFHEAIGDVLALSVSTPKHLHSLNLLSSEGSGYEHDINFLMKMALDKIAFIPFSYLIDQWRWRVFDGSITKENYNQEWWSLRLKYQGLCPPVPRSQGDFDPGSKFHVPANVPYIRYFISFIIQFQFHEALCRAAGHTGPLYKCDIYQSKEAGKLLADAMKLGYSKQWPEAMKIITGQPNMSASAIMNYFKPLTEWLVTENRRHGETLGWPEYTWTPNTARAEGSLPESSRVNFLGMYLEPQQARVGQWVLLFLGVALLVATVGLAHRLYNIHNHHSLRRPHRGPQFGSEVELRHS


Assays:
[1] = molecular target: human converting enzyme (human ACE) (human, UniProt P12821 30-1306, limits assumed); test: cell-based or functional assay
[2] = molecular target: T1, rat lung ACE (angiotensin I converting …); test: cell-based or functional assay

| Binder | in vitro degradation: % of peptide assayed relative to the control (enzyme immunoassay), T10 min, no captopril [1] [%] | in vitro degradation: % of peptide assayed relative to the control (enzyme immunoassay), T10 min, with captopril 10 uM [1] [%] | in vitro degradation: % of peptide assayed relative to the control (enzyme immunoassay), T30 min, no captopril [1] [%] | in vitro degradation: % of peptide assayed relative to the control (enzyme immunoassay), T30 min, with captopril 10 uM [1] [%] | in vitro degradation: % of peptide assayed relative to the control (enzyme immunoassay), T60 min, no captopril [1] [%] | in vitro degradation: % of peptide assayed relative to the control (enzyme immunoassay), T60 min, with captopril 10 uM [1] [%] | in vitro degradation: % of peptide assayed relative to the control (enzyme immunoassay), T120 min, no captopril [1] [%] | in vitro degradation: % of peptide assayed relative to the control (enzyme immunoassay), T120 min, with captopril 10 uM [1] [%] | in vitro degradation: % of peptide assayed relative to the control (enzyme immunoassay), T240 min, no captopril [1] [%] | in vitro degradation: % of peptide assayed relative to the control (enzyme immunoassay), T240 min, with captopril 10 uM [1] [%] | in vitro degradation: % of peptide assayed relative to the control (enzyme immunoassay), T1440 min, no captopril [1] [%] | in vitro degradation: % of peptide assayed relative to the control (enzyme immunoassay), T1440 min, with captopril 10 uM [1] [%] | in vitro degradation: % of peptide assayed relative to the control (enzyme immunoassay), T30 min, no captopril [2] [%] | in vitro degradation: % of peptide assayed relative to the control (enzyme immunoassay), T30 min, with captopril 10 uM [2] [%] | in vitro degradation: % of peptide assayed relative to the control (enzyme immunoassay), T60 min, no captopril [2] [%] | in vitro degradation: % of peptide assayed relative to the control (enzyme immunoassay), T60 min, with captopril 10 uM [2] [%] | in vitro degradation: % of peptide assayed relative to the control (enzyme immunoassay), T120 min, no captopril [2] [%] | in vitro degradation: % of peptide assayed relative to the control (enzyme immunoassay), T120 min, with captopril 10 uM [2] [%] | in vitro degradation: % of peptide assayed relative to the control (enzyme immunoassay), T240 min, no captopril [2] [%] | in vitro degradation: % of peptide assayed relative to the control (enzyme immunoassay), T240 min, with captopril 10 uM [2] [%] |
| --- | --- | --- | --- | --- | --- | --- | --- | --- | --- | --- | --- | --- | --- | --- | --- | --- | --- | --- | --- | --- |
| Ac-SDKP-NH2 [N-acetyl-Ser-Asp-Lys-Pro-NH2 (AcSDKP-NH2)] | 79 | 90 | 100 | 162 | 116 | 78 | 116 | 95 | 107 | 104 | 86 | 117 | 100 | 125 | 65 | 65 | 95 | 109 | 126 | 136 |
| Ac-SDKP [N-acetyl-Ser-Asp-Lys-Pro (AcSDKP)] | 82 | 90 | 75 | 100 | 50 | 85 | 25 | 85 | 7 | 100 | – | – | 28 | 129 | 9 | 111 | 5 | 75 | 5 | 89 |
